Results taken from article PMC6612524.

biological target: human plasma fibronectin (human); test: ITC; 35 μM peptide titrated into the cell with 2.7 μM human plasma fibronectin; PBS pH 7.4; 25 °C; one set of sites model; duplicates
Sequence (P02751 other isoform, or with tags, fused parts or gaps): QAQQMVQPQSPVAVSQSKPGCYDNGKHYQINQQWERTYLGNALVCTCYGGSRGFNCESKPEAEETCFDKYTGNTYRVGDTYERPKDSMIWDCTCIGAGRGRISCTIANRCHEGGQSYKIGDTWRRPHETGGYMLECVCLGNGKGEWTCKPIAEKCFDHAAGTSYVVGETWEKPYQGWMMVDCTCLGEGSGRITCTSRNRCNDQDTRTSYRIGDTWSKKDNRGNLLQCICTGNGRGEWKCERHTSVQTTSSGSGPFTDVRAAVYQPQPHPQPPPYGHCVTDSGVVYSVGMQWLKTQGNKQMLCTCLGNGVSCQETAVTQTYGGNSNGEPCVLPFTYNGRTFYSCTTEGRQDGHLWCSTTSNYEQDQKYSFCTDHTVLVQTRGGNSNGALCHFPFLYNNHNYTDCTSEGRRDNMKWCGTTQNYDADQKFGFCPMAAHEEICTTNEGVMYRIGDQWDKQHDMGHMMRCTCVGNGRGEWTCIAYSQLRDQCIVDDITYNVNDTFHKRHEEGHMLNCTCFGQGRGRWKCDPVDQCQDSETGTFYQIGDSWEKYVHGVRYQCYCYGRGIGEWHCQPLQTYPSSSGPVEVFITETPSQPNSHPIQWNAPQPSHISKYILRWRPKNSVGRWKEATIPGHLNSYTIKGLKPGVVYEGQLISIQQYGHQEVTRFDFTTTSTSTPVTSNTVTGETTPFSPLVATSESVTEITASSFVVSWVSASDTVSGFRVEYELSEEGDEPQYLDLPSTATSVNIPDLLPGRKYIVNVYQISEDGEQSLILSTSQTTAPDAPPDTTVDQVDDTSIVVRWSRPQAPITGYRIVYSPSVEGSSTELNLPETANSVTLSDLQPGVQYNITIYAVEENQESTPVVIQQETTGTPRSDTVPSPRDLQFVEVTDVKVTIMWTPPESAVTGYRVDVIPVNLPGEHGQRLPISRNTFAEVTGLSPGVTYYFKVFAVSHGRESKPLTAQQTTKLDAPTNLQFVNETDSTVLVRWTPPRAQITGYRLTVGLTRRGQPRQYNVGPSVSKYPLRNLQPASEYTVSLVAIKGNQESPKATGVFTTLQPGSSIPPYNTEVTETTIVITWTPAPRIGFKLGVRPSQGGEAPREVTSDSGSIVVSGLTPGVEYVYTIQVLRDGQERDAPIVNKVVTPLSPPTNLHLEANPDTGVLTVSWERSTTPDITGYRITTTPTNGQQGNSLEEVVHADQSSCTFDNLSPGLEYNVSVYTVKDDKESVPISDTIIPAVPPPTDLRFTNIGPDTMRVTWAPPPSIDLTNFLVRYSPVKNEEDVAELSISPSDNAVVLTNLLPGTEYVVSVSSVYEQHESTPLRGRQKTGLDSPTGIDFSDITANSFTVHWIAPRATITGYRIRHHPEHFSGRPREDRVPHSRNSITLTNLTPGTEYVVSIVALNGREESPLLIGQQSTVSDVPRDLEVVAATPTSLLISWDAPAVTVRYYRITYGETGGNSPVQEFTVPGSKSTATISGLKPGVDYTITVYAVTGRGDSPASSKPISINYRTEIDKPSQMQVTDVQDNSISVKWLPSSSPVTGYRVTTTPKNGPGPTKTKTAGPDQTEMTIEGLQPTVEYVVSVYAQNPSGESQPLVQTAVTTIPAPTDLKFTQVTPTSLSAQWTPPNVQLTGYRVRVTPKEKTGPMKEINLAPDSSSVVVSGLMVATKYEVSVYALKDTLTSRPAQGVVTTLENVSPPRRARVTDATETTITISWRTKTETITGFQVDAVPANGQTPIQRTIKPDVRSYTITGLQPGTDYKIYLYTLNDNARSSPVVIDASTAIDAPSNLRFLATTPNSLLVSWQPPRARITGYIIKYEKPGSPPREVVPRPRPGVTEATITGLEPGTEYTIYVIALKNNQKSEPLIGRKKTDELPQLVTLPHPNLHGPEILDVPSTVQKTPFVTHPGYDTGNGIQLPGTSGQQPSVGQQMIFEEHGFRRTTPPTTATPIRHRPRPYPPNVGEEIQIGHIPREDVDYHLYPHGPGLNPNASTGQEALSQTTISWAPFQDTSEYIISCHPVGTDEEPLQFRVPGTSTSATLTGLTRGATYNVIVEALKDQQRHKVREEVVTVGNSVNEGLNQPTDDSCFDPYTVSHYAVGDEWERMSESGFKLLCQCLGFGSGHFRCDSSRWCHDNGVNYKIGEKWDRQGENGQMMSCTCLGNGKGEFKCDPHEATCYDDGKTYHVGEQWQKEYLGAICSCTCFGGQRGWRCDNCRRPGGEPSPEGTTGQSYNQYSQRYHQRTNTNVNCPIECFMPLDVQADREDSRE

Row | Substance | Kd | dH | stoichiometry N
1 | singly sulfo-Cy5 labeled FUD peptide (peptide; other documents disagree on this pair) | 4.7 nM | -35.8 kcal/mol | 1.48
2 | Functional Upstream Domain (FUD) peptide (peptide; other documents disagree on this pair) | 4.3 nM | -33 kcal/mol | 1.47
3 | sulfo-Cy5 labeled 20 kDa PEG-FUD (peptide; other documents disagree on this pair) | 13 nM | -35 kcal/mol | 1.5
